The target in test [1] is T1, recombinant human lymphotoxin α2/β1 (R&D systems, cat. No 679-TX-010/CF) (human, UniProt P01374 35-205; Q06643 49-244, limits assumed).
T1 construct: Bought heterotrimer; also called human lymphotoxin alpha2/beta1
T1 sequence (looked up) 1: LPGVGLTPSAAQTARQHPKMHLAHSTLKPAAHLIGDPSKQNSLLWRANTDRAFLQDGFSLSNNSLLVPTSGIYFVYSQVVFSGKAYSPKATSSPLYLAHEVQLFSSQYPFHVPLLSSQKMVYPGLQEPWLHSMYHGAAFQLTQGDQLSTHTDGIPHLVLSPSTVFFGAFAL
T1 sequence (looked up) 2: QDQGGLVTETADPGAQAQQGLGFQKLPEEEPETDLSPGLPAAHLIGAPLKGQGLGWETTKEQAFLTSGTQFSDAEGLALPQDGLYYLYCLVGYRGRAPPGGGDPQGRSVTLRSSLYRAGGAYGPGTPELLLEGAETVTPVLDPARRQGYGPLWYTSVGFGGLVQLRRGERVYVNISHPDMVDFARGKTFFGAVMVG
The test can be described thus: direct ELISA, protein coated. Here is the method:
(§1) The cross-reactivity profile of the five selected scFvs to TNF alpha homologs of other species than human beings was assessed using ELISA. The following recombinantly expressed TNF alpha proteins were investigated: rhesus macaque (R&D Systems, USA, cat. no. 1070-RM-025/CF), cynomolgus monkey (Sinobiological, cat.no. 90018 CNAE), canine (Kingfisher Biotech, USA, cat. no. RP0261D-025) and feline (R&D systems, cat. No, 2586FTCF), rabbit (Kingfisher, cat. no RPO429U), rat (Peprotech, cat. no 400-14) murine (Peprotech, cat. no 315-01A), guinea pig (R&D Systems, cat. no 5035-TG-025/CF), porcine (R&D Systems, cat. no 690-PT-025/CF). Briefly, proteins were coated at a concentration of 2 mcg/mL over night at 4° C. on Maxisorp 96-well microplates in PBS pH 7.2. After blocking with 5% non-fat dry milk, increasing concentrations of scFv (0.1, 0.3 and 1.0 mcg/mL) were added to the wells. Successful coating of every protein was separately confirmed with TNF alpha-specific control antibodies. Whereas scFv1 was detected by Protein L-HRP (Sigma-Aldrich, USA, cat. no. P3226), the full-length IgG control antibodies were detected by either Streptavidin-HRP (BD Pharmingen, USA, cat. no. 554060) or other eligible secondary antibodies labelled with HRP. The ELISA was developed with BM Blue POD substrate (Roche Applied Science) and the absorbance was measured at 450 nm. The cross-reactivity of scFvs 1-5 was compared to the scFv DLX2481. […] The scFv DLX2481 recognized only recombinant human TNF alpha. In addition, the cross-reactivity of scFv1 to TNF family members was measured by a direct ELISA with coated recombinant human lymphotoxin α2/β1 (R&D systems, USA, cat. No 679-TX-010/CF), recombinant human lymphotoxin α2/β1 (R&D systems, cat. No 678-LY-010/CF), recombinant human CD40 ligand/TNFSF5 (R&D systems, cat. No. 6420-CL-025/CF) and recombinant human TNF beta/TNFSF1 (R&D systems, cat.

Test [2] addresses T2, recombinant human lymphotoxin α2/β1 (R&D systems, cat. No 678-LY-010/CF) (human, UniProt P01374 35-205; Q06643 49-244, limits assumed).
T2 construct: This second one is probably α1/β2, so copy numbers are left open; also called second lymphotoxin preparation
T2 sequence (looked up) 1: T1 sequence (looked up) 1
T2 sequence (looked up) 2: T1 sequence (looked up) 2
Description: direct ELISA, protein coated. The procedure: as §1
A general note: In an ELISA, binding on a coated surface is turned into a signal by an enzyme label.

In test [3] the target is T3, recombinant human TNF beta/TNFSF1 (human, UniProt P01374 35-205, limits assumed).
T3 construct: Bought protein; also called R&D systems cat; No. 211-TB-010/CF
T3 sequence (looked up): T1 sequence (looked up) 1
The test can be described thus: direct ELISA, protein coated. The procedure: as §1

Test [4] deals with T4, recombinant human CD40 ligand/TNFSF5 (human, UniProt P29965 108-261, limits assumed).
T4 construct: Bought protein; also called R&D systems cat; No. 6420-CL-025/CF
T4 sequence (looked up): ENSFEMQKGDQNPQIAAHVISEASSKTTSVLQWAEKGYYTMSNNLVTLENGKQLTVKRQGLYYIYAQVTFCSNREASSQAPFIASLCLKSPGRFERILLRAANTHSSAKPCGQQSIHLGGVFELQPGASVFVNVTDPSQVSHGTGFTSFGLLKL
Description: direct ELISA, protein coated. Here is the method: as §1

Test [5] has as its target recombinant human (rh) TNF alpha (human, UniProt P01375 77-233, limits assumed). The test can be described thus: cell-based or functional assay.
Test [6] deals with transmembrane (tm) human TNF alpha, A1-12 variant, on CHO cells (human, UniProt P01375 1-233). Description: cell-based or functional assay.
Sequence of transmembrane (tm) human TNF alpha, A1-12 variant, on CHO cells (P01375 other isoform, or with tags, fused parts or gaps mutant limits assumed): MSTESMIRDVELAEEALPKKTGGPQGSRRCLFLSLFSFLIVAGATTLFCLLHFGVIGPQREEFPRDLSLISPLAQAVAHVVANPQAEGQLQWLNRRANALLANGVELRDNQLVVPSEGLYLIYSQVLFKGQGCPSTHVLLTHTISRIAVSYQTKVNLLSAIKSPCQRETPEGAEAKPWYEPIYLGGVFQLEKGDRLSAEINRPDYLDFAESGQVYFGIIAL
In test [7] the target is T5, cynomolgus monkey TNF alpha (cynomolgus monkey, UniProt P79337 77-233).
T5 construct: Bought protein; also called Sinobiological cat. no; 90018 CNAE
T5 sequence (P79337 77-233 limits assumed): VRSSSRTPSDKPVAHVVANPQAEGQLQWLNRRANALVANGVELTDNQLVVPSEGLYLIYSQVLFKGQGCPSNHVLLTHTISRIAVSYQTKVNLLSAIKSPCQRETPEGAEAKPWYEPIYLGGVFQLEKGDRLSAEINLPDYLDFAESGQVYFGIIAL
The test can be described thus: ELISA, TNF alpha protein coated, Protein L-HRP detection. Here is the method: as §1

Test [8] addresses T6, rhesus macaque TNF alpha (rhesus macaque, UniProt P48094 77-233).
T6 construct: Bought protein; also called R&D Systems cat. no; 1070-RM-025/CF
The test is described as above. The procedure:
as §1

The target in test [9] is T7, canine TNF alpha (canine, UniProt P51742 77-233).
T7 construct: Bought protein; also called dog TNF alpha; Kingfisher Biotech cat. no; RP0261D-025
T7 sequence (P51742 77-233 limits assumed): as the sequence (P79337 77-233 limits assumed) above, with R2K, Q21E, N30S, V37L, V49I, E53D, N72T, I83F, A109T, D140N counted along it
Described as above. Here is the method:
as §1

Test [10] deals with T8, feline TNF alpha (feline, UniProt P19101 77-233).
T8 construct: Bought protein; also called R&D systems cat; No 2586FTCF
T8 sequence (P19101 77-233 limits assumed): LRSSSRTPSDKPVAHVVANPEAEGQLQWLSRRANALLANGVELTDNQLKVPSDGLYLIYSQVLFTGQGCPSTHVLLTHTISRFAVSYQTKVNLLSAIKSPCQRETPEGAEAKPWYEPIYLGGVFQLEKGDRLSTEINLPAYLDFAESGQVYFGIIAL
The test is described as above. Here is the method: as §1

Sequence of recombinant human (rh) TNF alpha (P01375 77-233 limits assumed): as the sequence (P79337 77-233 limits assumed) above, with V37L, T44R, N72T, L138R counted along it
T6 sequence (P48094 77-233 limits assumed): as the sequence (P79337 77-233 limits assumed) above, with V37L counted along it

B1: scFv1 (scFv)
scFv: EIVMTQSPSTLSASVGDRVIITCQASQSISSYLAWYQQKPGKAPKLLIYWASTLASGVPSRFSGSGSGTEFTLTISSLQPDDFATYYCQSYYYTSNNSDGFWAFGQGTKLTVLGGGGGSGGGGSGGGGSGGGGSEVQLVESGGGLVQPGGSLRLSCKASGIDFSNSGITWVRQAPGKGLEWVGYIYPGFGIRNYANSVRGRFTISRDTSKNTVYLQMNSLRAEDTAVYYCARDPIYASSSGYADIWGQGTLVTVSS
Regarding B1, the binding result in test [1] was “no binding (tested: 40 nM)”; in test [2], “no binding (tested: 40 nM)”; in test [3] it was “no binding (tested: 40 nM)”; in test [4] it was “no binding (tested: 40 nM)”; in test [7] it was “binds”; in [8], “binds”. The binding result in test [9] and in test [10] was “binds” each time. Further, the “IC50, inhibition of rhTNF alpha (1.4 pM) cytotoxicity on PK-15 cells” value in test [5] was 30 pM. Moreover, the “IC50, inhibition of tmTNF alpha activity on HEK-Dual TNF alpha-sensitive reporter cells (luciferase)” value in test [6] stood at 50 nM.

B2: positive control scFv DLX105 (scFv)
scFv: MADIVMTQSPSSLSASVGDRVTLTCTASQSVSNDVVWYQQRPGKAPKLLIYSAFNRYTGVPSRFSGRGYGTDFTLTISSLQPEDVAVYYCQQDYNSPRTFGQGTKLEVKRGGGGSGGGGSGGGGSSGGGSQVQLVQSGAEVKKPGASVKVSCTASGYTFTHYGMNWVRQAPGKGLEWMGWINTYTGEPTYADKFKDRFTFSLETSASTVYMELTSLTSDDTAVYYCARERGDAMDYWGQGTLVTVSS
Take B2: the “IC50, inhibition of rhTNF alpha (1.4 pM) cytotoxicity on PK-15 cells” value in test [5] was 260 pM. In [6], the “IC50, inhibition of tmTNF alpha activity on HEK-Dual TNF alpha-sensitive reporter cells (luciferase)” value came out at 32 nM.

Source of the values: patent publication US20170107282A1 (CELL MEDICA SWITZERLAND, published 2017).
